Test results reported in patent US20220211858A1, “TUBULAR SUPRAMOLECULAR POLYMERS” (priority 2019, published 2022).
Like-named read-outs stand apart in the source and are kept apart here.

Assays:
HT-29 cells [1] = assay: Antitumor efficacy of SAPDs at near MTD on a HT-29 tumor model; conditions: day 28; SAPD 1 12 mg/kg, SAPD 2-4 36 mg/kg i.v. days 1, 5, 9; irinotecan 100 mg/kg i.p. days 1, 8, 15
Experimental: Antitumor efficacy study of SAPDs at near MTD on a HT-29 tumor model. HT-29 tumor model was established as described above. When the averaged tumor size reached 70-110 mm^3, mice were randomly divided into six groups (n=5 for each group). Four different SAPDs were all i.v. dosed at near or slightly lower than their estimated MTDs. […] The irinotecan (i.p. injection, 100 mg/kg at days 1, 8 and 15) and the PBS groups were used as controls. All other protocols were similar to those in the above-mentioned efficacy study.

HT-29 cells [2] = conditions: mouse, in vivo
Description: Antitumor efficacy study of SAPDs at the same dose on a HT-29 tumor model. […] When the averaged tumor size reached 75-95 mm^3, mice were randomly divided into six groups. […] The tumor volumes and body weights were monitored and recorded every two or three days. The tumor volume was estimated by measuring the length and width with calipers and using the equation “tumor volume=(length×width^2)/2”. Mice were euthanized once the tumor volume reached 1000 mm^3.

[3] = Drug release of SAPDs in rat plasma; type: in vitro ADME; conditions: rat plasma (10%, v/v), without GSH, read-out: remaining drugs
Experimental: The drug release in rat plasma (10%, v/v) were performed using similar protocols as those in PBS. To determine the amount of SAPDs and free CPT in each sample, 50 μL of sample was mixed with 200 μL acetonitrile (containing 0.1% TFA) and sonicated for 1 min. The supernatants were collected using centrifugation. All samples were filtered through a 0.22 μm membrane before analysis by a UPLC system (Waters ACQuity™ Ultra Performance LC) equipped with a reverse-phase column (ACQuity UPLC@BEH, C18, 1.7 μm 2.1×150 mm) and a fluorescence detector (ACQuity FLR, Ex/Em=362/430 nm). The column was flushed with a mixture of water (0.1% TFA) and acetonitrile (0.1% TFA) at 0.3 mL/min with the following gradient: 5% acetonitrile (0-1 min), 5-95% acetonitrile (1-5 min), 95% acetonitrile (5-8 min), 95-5% acetonitrile (8-9 min), and 5% acetonitrile (9-10 min). Peaks of SAPDs and free CPT were monitored and recorded, and the concentrations were calculated by comparing with standard curves.

[4] = Zeta potential measurement; type: physicochemical; conditions: assembled SAPDs in PBS buffer
Experimental: TT solutions of 200 μM in 1×-DPBS buffer (pH=7.4) were prepared by directly mixing identical volumes of a 400 μM aqueous TT solution and 2×-DPBS buffer (pH=7.4). In some embodiments, solutions at a concentration of 2 mM in PBS buffer (pH=7.4) were prepared and aged overnight prior to zeta potential measurement. TT solutions of 200 μM in 1×-DPBS buffer (pH=5.0) were prepared by mixing identical volumes of a 400 μM aqueous TT solution and 2×-DPBS buffer (pH=5.0), which was pretreated with 6 M HCl. The zeta potential measurements were performed on a Zetasizer Nano ZS90 (Malvern Instruments Ltd., UK). The prepared solutions were loaded in capillary cells and equilibrated for 2 min prior to measurement. The average values and their standard deviations are calculated from three replicate measurements. The zeta potential of the assembled structures was obtained by measuring the electrophoretic movement of the nanostructures under the applied electric field, where the movement velocity is determined by phase analysis light scattering. Variations of the zeta potential value over time were determined by measuring the solutions at different aging time points (1, 2, 4 and 7 days) and are plotted in FIG. 10.

[5] = Circulation studies of SAPDs in rats; type: in vivo, Sprague Dawley (SD) rats; conditions: 10 mg/kg i.v.
Experimental: Circulation studies of SAPDs in rats. Female Sprague Dawley (SD) Rats (200-250 g) were randomly grouped into four groups with three rats in each group. SAPDs were all intravenously (i.v.) dosed at 10 mg/kg (CPT equivalent). The dosing volumes of SAPDs were estimated by a ratio of 1 mL for a 200 g rat. The blood samples were collected at 5 min, 15 min, 30 min, 1 h, 2 h, 4 h, 8 h, and 12 h, which were immediately centrifuged to take plasma for further analysis and stored at −80° C. The plasma proteins were precipitated using similar protocols as mentioned above in drug release section and the determination of SAPDs and free CPT in the plasma by UPLC also used the same conditions.
Estimation of SAPD concentration in plasma upon injection. To calculation the concentration after dilution, we simply set the following parameters: body weight of mice (20 g), dosing volume of mice (200 μL), blood volume of mice (1.8 mL), body weight of rat (200 g), dosing volume of mice (1 mL), blood volume of mice (18 mL) and the dosage for both mice and rats (10 mg/kg).

[6] = Maximum tolerated dose (MTD) dose escalation study; type: in vivo, athymic nude mice; conditions: for Maximum % BW loss: n=3
Experimental: Maximum tolerated dose (MTD) studies. MTD of SAPD 1 has been previously determined in our lab (Table 1). MTDs of other SAPDs were determined by dose escalation studies in healthy female athymic nude mice (Charles River, 12-13 weeks old). A single intravenous (i.v.) injection of SAPD was dosed at day 1 and the body weights of each mouse (n=3) were recorded every day for six days and every the other day until two weeks. The dosing volume was determined based upon a ratio of 200 μL for a 20 g mouse. Doses of SAPDs used in the studied were 108, 72, 54, 45, 36 and 18 mg/kg (CPT equivalent).

CC[C@]1(OC(=O)OCCSSC[C@@H](NC(C)=O)C(=O)N[C@@H](CCCCNC(=O)[C@@H](CSSCCOC(=O)O[C@]2(CC)C(=O)OCc3c2cc2n(c3=O)Cc3cc4ccccc4nc3-2)NC(C)=O)C(=O)N[C@@H](CCCCNC(=O)CCOCCOCCOCCOCCOC)C(=O)N[C@@H](CCCCNC(=O)CCOCCOCCOCCOCCOC)C(=O)N[C@@H](CCCCNC(=O)CCOCCOCCOCCOCCOC)C(=O)N[C@@H](CCCCNC(=O)CCOCCOCCOCCOCCOC)C(=O)N[C@@H](CCCCNC(=O)CCOCCOCCOCCOCCOC)C(=O)N[C@@H](CCCCNC(=O)CCOCCOCCOCCOCCOC)C(=O)N[C@@H](CCCCNC(=O)CCOCCOCCOCCOCCOC)C(=O)N[C@@H](CCCCNC(=O)CCOCCOCCOCCOCCOC)C(N)=O)C(=O)OCc2c1cc1n(c2=O)Cc2cc3ccccc3nc2-1 [SAPD 4]
mean tumor volume (HT-29 cells [1]): 408 mm^3 | mean tumor volume (HT-29 cells [2]): 286 mm^3 | median survival (HT-29 cells [2]): 47 days | remaining at 96 h [3]: 18% | ζ-Potential [4]: −5.9 mV | total CPT concentration in plasma ([5]; 1 h): 4.7 µM | total CPT concentration in plasma ([5]; 2 h): 1.0 µM | MTD ([6]; female, athymic nude, mouse, in vivo, iv, single i.v. injection, CPT equivalent, healthy athymic nude mice): 72 mg/kg | Survival/Total ([6]; single i.v. dose 18 mg/kg): 3/3 | day of maximum BW loss ([6]; single i.v. dose 18 mg/kg): 5 days | Maximum % BW loss ([6]; single i.v. dose 18 mg/kg (CPT equivalent)): 3.1% | Survival/Total ([6]; single i.v. dose 36 mg/kg): 3/3 | day of maximum BW loss ([6]; single i.v. dose 36 mg/kg): 2 days | Maximum % BW loss ([6]; single i.v. dose 36 mg/kg (CPT equivalent)): 7.2% | Survival/Total ([6]; single i.v. dose 45 mg/kg): 3/3 | Maximum % BW loss ([6]; single i.v. dose 45 mg/kg (CPT equivalent)): 0% | Survival/Total ([6]; single i.v. dose 54 mg/kg): 3/3 | day of maximum BW loss ([6]; single i.v. dose 54 mg/kg): 3 days | Maximum % BW loss ([6]; single i.v. dose 54 mg/kg (CPT equivalent)): 3.9% | Survival/Total ([6]; single i.v. dose 72 mg/kg): 2/3 | day of maximum BW loss ([6]; single i.v. dose 72 mg/kg): 1 days | Maximum % BW loss ([6]; single i.v. dose 72 mg/kg (CPT equivalent)): 1.2% | Survival/Total ([6]; single i.v. dose 108 mg/kg): 1/3
